# According to the supplement of paper PMC11246515:
# ± gives the standard deviation of the averaged measurements.
# Experiment: total protein half-life in vivo (active degradation + dilution); higher = more stable protein
# [1] = E. coli NCM3722 delta-clpP delta-lon delta-hslV, growth: N-lim chemostat, doubling time 6 h
# [2] = E. coli NCM3722 delta-clpP, growth: N-lim chemostat, doubling time 6 h
# [3] = E. coli NCM3722 delta-hslV, growth: N-lim chemostat, doubling time 6 h
# [4] = E. coli NCM3722 delta-lon, growth: N-lim chemostat, doubling time 6 h
# [5] = E. coli NCM3722 delta-smpB, growth: N-lim chemostat, doubling time 6 h
# [6] = wild type E. coli NCM3722, growth: C-lim chemostat, doubling time 3 h
# [7] = wild type E. coli NCM3722, growth: C-lim chemostat, doubling time 6 h
# [8] = wild type E. coli NCM3722, growth: C-lim chemostat, doubling time 12 h
# [9] = wild type E. coli NCM3722, growth: N-lim chemostat, doubling time 6 h
# [10] = wild type E. coli NCM3722, growth: N-lim chemostat, doubling time 12 h
# [11] = wild type E. coli NCM3722, growth: P-lim chemostat, doubling time 6 h
# [12] = wild type E. coli NCM3722, growth: P-lim chemostat, doubling time 12 h
Sequence,total protein half-life in vivo [1] [h],total protein half-life in vivo [2] [h],total protein half-life in vivo [3] [h],total protein half-life in vivo [4] [h],total protein half-life in vivo [5] [h],total protein half-life in vivo [6] [h],total protein half-life in vivo [7] [h],total protein half-life in vivo [8] [h],total protein half-life in vivo [9] [h],total protein half-life in vivo [10] [h],total protein half-life in vivo [11] [h],total protein half-life in vivo [12] [h]
MIEILHEYWKPLLWTDGYRFTGVAITLWLLILSVVIGGVLALFLAIGRVSSNKYIQFPIWLFTYIFRGTPLYVQLLVFYSGMYTLEIVKGTEFLNAFFRSGLNCTVLALTLNTCAYTTEIFAGAIRSVPHGEIEAARAYGFSTFKMYRCIILPSALRIALPAYSNEVILMLHSTALAFTATVPDLLKIARDINAATYQPFTAFGIAAVLYLIISYVLISLFRRAEKRWLQHVKPSSTH [P0AEU3],> 8,6.1106 ± 0.00052,6.07,6.71 ± 0.91,7.16 ± 0.54,> 4,5.71 ± 0.54,11.3 ± 1.3,6.75 ± 0.49,11 ± 3.6,6.32,11.92 ± 0.04
MNTLPEHSCDVLIIGSGAAGLSLALRLADQHQVIVLSKGPVTEGSTFYAQGGIAAVFDETDSIDSHVEDTLIAGAGICDRHAVEFVASNARSCVQWLIDQGVLFDTHIQPNGEESYHLTREGGHSHRRILHAADATGREVETTLVSKALNHPNIRVLERSNAVDLIVSDKIGLPGTRRVVGAWVWNRNKETVETCHAKAVVLATGGASKVYQYTTNPDISSGDGIAMAWRAGCRVANLEFNQFHPTALYHPQARNFLLTEALRGEGAYLKRPDGTRFMPDFDERGELAPRDIVARAIDHEMKRLGADCMFLDISHKPADFIRQHFPMIYEKLLGLGIDLTQEPVPIVPAAHYTCGGVMVDDHGRTDVEGLYAIGEVSYTGLHGANRMASNSLLECLVYGWSAAEDITRRMPYAHDISTLPPWDESRVENPDERVVIQHNWHELRLFMWDYVGIVRTTKRLERALRRITMLQQEIDEYYAHFRVSNNLLELRNLVQVAELIVRCAMMRKESRGLHFTLDYPELLTHSGPSILSPGNHYINR,4 ± 0.14,2.44 ± 0.11,2.28 ± 0.26,4.14 ± 1.7,2.39 ± 0.22,2.68 ± 0.063,4.41 ± 0.59,8.41 ± 0.56,2.58 ± 0.22,3.51 ± 0.061,4.69 ± 0.27,8.21 ± 0.71
MSRNTEATDDVKTWTGGPLNYKEGFFTQLATDELAKGINEEVVRAISAKRNEPEWMLEFRLNAYRAWLEMEEPHWLKAHYDKLNYQDYSYYSAPSCGNCDDTCASEPGAVQQTGANAFLSKEVEAAFEQLGVPVREGKEVAVDAIFDSVSVATTYREKLAEQGIIFCSFGEAIHDHPELVRKYLGTVVPGNDNFFAALNAAVASDGTFIYVPKGVRCPMELSTYFRINAEKTGQFERTILVADEDSYVSYIEGCSAPVRDSYQLHAAVVEVIIHKNAEVKYSTVQNWFPGDNNTGGILNFVTKRALCEGENSKMSWTQSETGSAITWKYPSCILRGDNSIGEFYSVALTSGHQQADTGTKMIHIGKNTKSTIISKGISAGHSQNSYRGLVKIMPTATNARNFTQCDSMLIGANCGAHTFPYVECRNNSAQLEHEATTSRIGEDQLFYCLQRGISEEDAISMIVNGFCKDVFSELPLEFAVEAQKLLAISLEHSVG,4.92 ± 0.3,2.89 ± 0.11,1.46 ± 0.085,1.98 ± 0.2,1.58 ± 0.085,1.85 ± 0.4,3.12 ± 0.02,4.99 ± 0.85,1.51 ± 0.56,2.29,3.223 ± 0.00026,5.113 ± 0.048
MSVTIQGNTSTVISNNSAPEGTSEIAKITRQIQVLTEKLGKISSEEGMTTQQKKEMAALVQKQIESLWAQLEQLLRQQAEKKNEDATVQPDKKEEKKDDTNTAGTIDIYV,,,,,,0.426,,,,,,
MNRIEHYHDWLRDAHAMEKQAESMLESMASRIDNYPELRARIEQHLSETKNQIVQLETILDRNDISRSVIKDSMSKMAALGQSIGGIFPSDEIVKGSISGYVFEQFEIACYTSLLAAAKNAGDTASIPTIEAILNEEKQMADWLIQNIPQTTEKFLIRSETDGVEAKK,4.867 ± 0.043,4.24 ± 0.64,6.68 ± 0.67,4.5 ± 0.39,3.94 ± 0.3,3.17 ± 0.17,5.22 ± 0.1,10.5 ± 1.5,4.14 ± 0.32,6.67 ± 0.1,5.2 ± 0.7,11.1 ± 0.76
MTTRVIALDLDGTLLTPKKTLLPSSIEALARAREAGYQLIIVTGRHHVAIHPFYQALALDTPAICCNGTYLYDYHAKTVLEADPMPVIKALQLIEMLNEHHIHGLMYVDDAMVYEHPTGHVIRTSNWAQTLPPEQRPTFTQVASLAETAQQVNAVWKFALTHDDLPQLQHFGKHVEHELGLECEWSWHDQVDIARGGNSKGKRLTKWVEAQGWSMENVVAFGDNFNDISMLEAAGTGVAMGNADDAVKARANIVIGDNTTDSIAQFIYSHLI,5.16 ± 0.18,0.903 ± 0.047,0.971 ± 0.12,1.19 ± 0.11,1.09 ± 0.013,2.05 ± 0.096,3.48 ± 1.5,3.08 ± 0.64,1.05 ± 0.02,1.52 ± 0.12,3 ± 0.29,4.84 ± 0.26
